Assay results reported in IntAct's records for PubMed 15070730.

B1: Tumor protein p73 (Homo sapiens), O15350-2 (parent)
chain: MAQSTATSPDGGTTFEHLWSSLEPDSTYFDLPQSSRGNNEVVGGTDSSMDVFHLEGMTTSVMAQFNLLSSTMDQMSSRAASASPYTPEHAASVPTHSPYAQPSSTFDTMSPAPVIPSNTDYPGPHHFEVTFQQSSTAKSATWTYSPLLKKLYCQIAKTCPIQIKVSTPPPPGTAIRAMPVYKKAEHVTDVVKRCPNHELGRDFNEGQSAPASHLIRVEGNNLSQYVDDPVTGRQSVVVPYEPPQVGTEFTTILYNFMCNSSCVGGMNRRPILIIITLEMRDGQVLGRRSFEGRICACPGRDRKADEDHYREQQALNESSAKNGAASKRAFKQSPPAVPALGAGVKKRRHGDEDTYYLQVRGRENFEILMKLKESLELMELVPQPLVDSYRQQQQLLQRPSHLQPPSYGPVLSPMNKVHGGMNKLPSVNQLVGQPPPHSSAATPNLGPVGPGMLNNHGHAVPANGEMSSSHSAQSMVSGSHCTPPPPYHADPSLVRTWGP
partner: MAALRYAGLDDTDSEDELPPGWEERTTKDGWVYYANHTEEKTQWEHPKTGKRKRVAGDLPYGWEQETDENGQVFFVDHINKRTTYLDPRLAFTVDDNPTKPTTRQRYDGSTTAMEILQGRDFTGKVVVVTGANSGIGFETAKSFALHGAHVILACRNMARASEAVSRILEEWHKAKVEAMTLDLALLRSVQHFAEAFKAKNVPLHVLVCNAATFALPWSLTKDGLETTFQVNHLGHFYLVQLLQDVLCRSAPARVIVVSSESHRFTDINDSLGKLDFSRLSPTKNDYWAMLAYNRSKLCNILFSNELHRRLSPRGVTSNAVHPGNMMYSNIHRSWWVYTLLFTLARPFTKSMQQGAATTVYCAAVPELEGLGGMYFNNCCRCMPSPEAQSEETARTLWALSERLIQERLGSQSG
B2: WW domain-containing oxidoreductase (Homo sapiens), Q9NZC7 (parent)
chain: B1 partner
partner: B1 chain

Variants of: B1
Conditions: with wwox_human WWOX, Q9NZC7

| effect of a mutation on the interaction | Variant |
| --- | --- |
| disrupting interaction strength | Y487A |

Variants of: B2
Conditions: with TP73, O15350-2

| effect of a mutation on the interaction | Variant |
| --- | --- |
| with no effect | Y61R |
| disrupting interaction strength | Y33R |

Variants of: B2
Conditions: with TP73, O15350-2
Remark: another data set of the same source

| effect of a mutation on the interaction | Variant |
| --- | --- |
| with no effect | Y33F |
| decreasing interaction strength | Y33R |
